Measurements: patent US20030147883A1 (US Dept. of Health and Human Services, published 2003)

Target: T1, chemokine receptor CCR5 (human, UniProt P51681 1-352)
T1 construct: whole, on cells
Experiment: ^125I-MIP-1β binding to human monocytes, displacement by unlabeled MIP-1β
Experimental: After incubation, the cells were washed with DPBS and centrifuged through a 10% sucrose/DPBS cushion. The tips of tubes containing cell pellets were cut and the cell-associated radioactivity was determined in a gamma counter. The results were presented as counts per minute (cpm) on 2×10⁶ monocyte and were representative of at least three experiments performed.

T1 sequence (P51681 whole entry): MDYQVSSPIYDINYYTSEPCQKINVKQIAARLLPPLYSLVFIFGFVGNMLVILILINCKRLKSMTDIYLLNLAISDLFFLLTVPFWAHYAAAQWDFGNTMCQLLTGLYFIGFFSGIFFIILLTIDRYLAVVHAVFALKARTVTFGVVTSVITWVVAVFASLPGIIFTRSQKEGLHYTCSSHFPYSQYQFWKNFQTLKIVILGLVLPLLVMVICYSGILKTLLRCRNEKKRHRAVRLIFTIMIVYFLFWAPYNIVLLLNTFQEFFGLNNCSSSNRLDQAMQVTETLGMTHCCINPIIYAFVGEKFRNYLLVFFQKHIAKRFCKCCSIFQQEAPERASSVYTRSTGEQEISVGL

B1: MIP-1β (ligand, human, UniProt P13236 24-92, looked up)
chain: APMGSDPPTACCFSYTARKLPRNFVVDYYETSSLCSQPAVVFQTKRSKQVCADPSESWVQEYVYDLELN
notes: also called MIP-1beta
Q: Does B1 bind?
A: Result: binds
